Measurements as given in publication doi:10.1101/127514.

Columns and labels:
[1] = target: human C5a receptor with C-terminal mGFP, on HEK cells (human) (UniProt P21730); test: single-molecule step-wise photobleaching
[2] = target: Alexa Fluor 647 maleimide-labeled LukS-K281C-Y113H (Staphylococcus aureus); test: single-molecule step-wise photobleaching

Sequence of UniProt P21730 (P21730 whole entry): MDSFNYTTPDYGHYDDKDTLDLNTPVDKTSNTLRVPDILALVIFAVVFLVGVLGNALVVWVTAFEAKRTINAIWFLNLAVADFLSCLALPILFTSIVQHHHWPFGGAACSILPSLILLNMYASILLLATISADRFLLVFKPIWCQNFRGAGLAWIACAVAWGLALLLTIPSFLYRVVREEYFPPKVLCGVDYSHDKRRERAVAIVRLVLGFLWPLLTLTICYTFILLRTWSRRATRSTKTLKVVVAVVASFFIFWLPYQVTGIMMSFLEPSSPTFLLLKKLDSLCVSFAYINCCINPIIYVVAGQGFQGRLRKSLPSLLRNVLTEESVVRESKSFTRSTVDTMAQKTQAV

“Alexa Fluor 647 maleimide-labeled LukS-K281C-Y113H (natural protein)” was tested, and the stoichiometry N (hC5aR molecules per LukS molecule) [1] was 4 to 5 and the stoichiometry N [2] was 3.9 molecules.
